Values quoted from earlier work as cited in article PMC8406260.

Molecular target: SARS-CoV-2 main protease Mpro (Severe acute respiratory syndrome coronavirus 2) (UniProt P0DTD1)

For “SARS-CoV-2 main protease Mpro (from UniProt P0DTD1)”, the Kd is listed as 2000 nM.
